Experimental findings from PMC4407904, “Increased Expression of the Large Conductance, Calcium-Activated K^+ (BK) Channel in Adult-Onset Neuronal Ceroid Lipofuscinosis” (PLoS ONE, 2015) are described below.

The series deals with the molecule itself. The experiment in a line: SDS-PAGE and immunoblot of detergent-resistant oligomers; soluble CAD cell lysates (1% Triton X-100, 0.1% SDS lysis buffer) 24-72 h after transient transfection; blots with anti-myc, anti-flag or anti-CSPα.

B1: myc-tagged wild type cysteine string protein (CSPα) (natural protein, UniProt P60905 1-198, looked up)
chain: MADQRQRSLSTSGESLYHVLGLDKNATSDDIKKSYRKLALKYHPDKNPDNPEAADKFKEINNAHAILTDATKRNIYDKYGSLGLYVAEQFGEENVNTYFVLSSWWAKALFVVCGLLTCCYCCCCLCCCFNCCCGKCKPKAPEGEETEFYVSPEDLEAQLQSDEREATDTPIVIQPASATETTQLTADSHPSYHTDGFN
notes: Cysteine string protein alpha (CSPα, DnaJC5), wild type; Seen on blots as an unpalmitoylated 26 kDa species, a palmitoylated 35 kDa monomer and a 70 kDa dimer; rat cDNA is surmised; also called WTCSPα; myc-CSPα; source: CAD cells, transiently transfected, in lysate
Take B1: the “stoichiometry N” value turned out to be 2.
